{
  "source": "paper PMC10821498",
  "about": "“Radiosynthesis Standardization and Preclinical Assessment of the [^68Ga]Ga-DOTA-Ubiquicidin29-41: A Translational Study Targeting Differential Diagnosis of Infectious Processes” (Pharmaceuticals, 2023)",
  "key": {"[1]": {"format": "physicochemical", "procedure": "The n-octanol/water partition coefficient (P) of [^68Ga]Ga-DOTA-UBI29-41 was determined using the shake-flask method described elsewhere. A 50 µL aliquot (~2 MBq) of the final product was added to a mixture of n-octanol/water (1:1). The tubes containing the mixture were shaken and centrifugated at 5000× g for 5 min in a Minispin® plus centrifuge (Eppendorf AG, Hamburg, Germany). Then, they were let to rest until complete separation of the phases occurred. After that, samples of 100 μL were taken from each phase. Radioactivity in the aliquots was quantified in an automated Wizard^2™ 3” 2480 gamma counter (PerkinElmer, Shelton, CT, USA). From there, the logarithm of P was determined from the ratio of the activity in organic phase to that in the aqueous phase."}, "[2]": {"test_system": "rodent serum proteins", "assay": "in vitro", "format": "in vitro ADME", "procedure": "(§1) SPB was determined via incubation of 50 μL of [^68Ga]Ga-DOTA-UBI29-41 with 450 μL of rodent serum at 37 °C and under gentle shaking at 450× g. At 30 and 60 min, proteins were separated via ultracentrifugation at 14,000× g using Amicon® 10 kDa filters (Merck Millipore, São Paulo, Brazil). The supernatant and pellet were conditioned in microtubes and their radioactivity was quantified in an automated gamma counter. The percentage of SPB was defined by the ratio between the radioactivity in the pellet and the total radioactivity, given by the sum of the radioactivities of the pellet and the supernatant."}, "[3]": {"assay": "in vitro", "format": "in vitro ADME, rodent", "conditions": "rodent, serum", "procedure": "as §1"}, "[4]": {"test_system": "methicillin-resistant Staphylococcus aureus (MRSA)", "format": "in vivo", "conditions": "healthy and MRSA-infected BALB/c mice, 30 and 60 min after i.v. administration, n = 5 per time point", "procedure": "The MRSA bacterial strain was prepared in two steps: pre-inoculum and inoculum. In the pre-inoculum phase, 10 mL of Luria Bertani (LB) medium and 20 μL of ampicillin (500 mg/mL) were added to MRSA (50–100 IU). The mixture was maintained overnight at 37 °C and under shaking at 200× g. In the inoculum phase, 20 mL of LB medium, 500 μL of the pre-inoculum preparation content and 40 μL of ampicillin (500 mg/mL) were combined. This new product was maintained at 37 °C and under shaking at 200× g until it reached an absorbance of 0.8–1.0. This quantification was carried out with an LGI-VS-721N spectrophotometer (LGI Scientific, São Paulo, Brazil). At this point, the content was manually homogenized and 1 mL samples were separated for centrifugation at 14,000× g for 5 min. Supernatants were removed and pellets were resuspended in 100 μL of PBS containing 10^9 CFU.\nMale BALB/c mice aged between 6 and 8 weeks were used in this work. […]\nFor the ex vivo biodistribution study, [^68Ga]Ga-DOTA-UBI29-41 was administered intravenously through the caudal vein of the mice (~5 MBq/100 μL) in control and infected animals. […] Organs were removed and weighed, and the radioactivity was quantified in a gamma counter. Percentages of injected activity per gram of organ (% IA/g) were determined, as well as the ratio of target (right tight muscle) to non-target (left tight muscle)."}},
  "note": "Where a SMILES comes first, the peptide text is derived from it. The star is where a group is joined. DOTA = O=C(O)CN1CCN(CC(=O)O)CCN(CC(=O)*)CCN(CC(=O)O)CC1",
  "data": [
    {"smiles": "CSCC[C@H](NC(=O)[C@H](CCCNC(=N)N)NC(=O)[C@H](CCCNC(=N)N)NC(=O)[C@H](CCCCN)NC(=O)[C@H](C)NC(=O)[C@H](CCCNC(=N)N)NC(=O)CNC(=O)[C@@H](NC(=O)CN1CCN(CC(=O)O)CCN(CC(=O)O)CCN(CC(=O)O)CC1)[C@@H](C)O)C(=O)N[C@@H](CCC(N)=O)C(=O)N[C@@H](Cc1ccc(O)cc1)C(=O)N[C@@H](CC(N)=O)C(=O)N[C@@H](CCCNC(=N)N)C(=O)N[C@@H](CCCNC(=N)N)C(=O)O", "note": "[[^68Ga]Ga-DOTA-UBI29-41, [^68Ga]Ga-DOTA-Ubiquicidin29-41, metal not drawn] ({DOTA}-TGRAKRRMQYNRR-OH)", "values": [
      {"measurement": "Log P", "setting": "[1]", "result": "–3.63 ± 0.17"},
      {"measurement": "Binding to rodent serum proteins (SPB)", "setting": "[2]", "result": 60, "unit": "%"},
      {"measurement": "fraction unbound at 30 min", "setting": "[3]", "result": 0.398},
      {"measurement": "fraction unbound at 60 min", "setting": "[3]", "result": 0.559},
      {"measurement": "Blood clearance and excretion", "setting": "[4]", "result": "fast blood depuration with urinary excretion"}
    ]}
  ]
}
